First the molecules themselves.
B1: tail sheath protein gp39 (natural protein, phage Mu, UniProt P79678 1-495, looked up)
chain: MSDISFNAIPSDVRVPLTYIEFDNSNAVSGTPAPRQRVLMFGQSGSKASAAPNVPVRIRSGSQASAAFGQGSMLALMADAFLNANRVAELWCIPQGNGTGNAAVGEISLSGTAGENGSLVTYIAGQRLAVSVAAGATGAALADLLVARIKGQPDLPVTAEVRADSGDDDTHADVVLSAKFTGALSAVDVRWNYYAGETTPYGIITAFKAASGKNGNPDISASIAGMGDLQYKYIVMPYTDEPNLNLLRTELQERWGPVNQADGFAVTVLSGTYGDISTFGVSRNDHLISCMGIAGAPEPSYLYAATLCAVASQALSIDPARPLQTLTLPGRMPPAVGDRFTWSERNALLFDGISTFNVNDGGEMQIERMITMYRTNKYGDSDPSYLNVNTIATLSYLRYSLRTRITQKFPNYKLASDGTRFATGQAVVTPSVIKTELLALFEEWENAGLVEDFDTFKEELYVARNKDDKDRLDVLCGPNLINQFRIFAAQVQFIL
notes: tail sheath protein gp39 of myophage Mu, as it stands in the virion; Hexameric rings, 30 of them stacked in the tail; Model deposited here; source: phage Mu virions grown on E. coli (ATCC 23724), purified (PEG 8000/NaCl precipitation, CsCl gradient)
B2: tail tube protein gp40 (natural protein, phage Mu, UniProt P79679 1-118, looked up)
chain: MAGNQRQGVAFIRVNGMELESMEGASFTPSGITREEVTGSRVYGWKGKPRAAKVECKIPGGGPIGLDEIIDWENITVEFQADTGETWMLANAWQADEPKNDGGEISLVLMAKQSKRIA
notes: tail tube protein gp40 of myophage Mu, as it stands in the virion; Hexameric rings, 30 of them stacked in the tail; Model deposited here; source: phage Mu virions grown on E. coli (ATCC 23724), purified (PEG 8000/NaCl precipitation, CsCl gradient)
B3: G(+) type fiber protein gp49 (natural protein, phage Mu, UniProt Q9T1V0 1-504, looked up)
chain: MFYIDNDSGVTVMPPVSAQRSAIVRWFSEGDGNNVITWPGMDWFNIVQAELLNTLEEAGIQPDKTKLNQLALSIKAIMSNNALLIKNNLSEIKTAGASAQRTARENLDIYDASLNKKGLVQLTSATDSPSETLAATAKAVKIAMDNANARLAKDRNGADIPNKPLFIQNLGLQETVNRARNAVQKNGDTLSGGLTFENDSILAWIRNTDWAKIGFKNDADSDTDSYMWFETGDNGNEYFKWRSKQSTTTKDLMNLKWDALSVLVNAIVNGEVISKSANGLRIAYGNYGFFIRNDGSNTYFMLTNSGDNMGTYNGLRPLWINNATGAVSMGRGLNVSGDTLSDRFAINSSNGMWIQMRDNNAIFGKNIVNTDSAQALLRQNHADRKFMIGGLGNKQFGIYMINNSRTANGTDGQAYMDNNGNWLCGAQVIPGNYANFDSRYVRDVRLGTQSLTGGLSRDYKAPSGHVITGFHTNGDWEMQGGDDKVYIRPVQKNINGTWYNVASA
notes: G(+) type tail fiber protein gp49 of myophage Mu, as it stands in the virion; only the N-terminus was modelled; Trimer; six fibers in the baseplate; Model deposited here; source: phage Mu virions grown on E. coli (ATCC 23724), purified (PEG 8000/NaCl precipitation, CsCl gradient)
B4: hub protein gp44 (natural protein, phage Mu, UniProt P08558 1-379, looked up)
chain: MSNTVTLRADGRLFTGWTSVSVTRSIESVAGYFELGVNVPPGTDLSGLAPGKKFTLEIGGQIVCTGYIDSRRRQMTADSMKITVAGRDKTADLIDCAAVYSGGQWKNRTLEQIARDLCAPYGVTVRWELSDKESSAAFPGFTLDHSETVYEALVRASRARGVLMTSNAAGELVFSRAASTATDELVLGENLLTLDFEEDFRDRFSEYTVKGYARANGAEGDDIDAKSIVSRKGTATDSDVTRYRPMIIIADSKITAKDAQARALREQRRRLAKSITFEAEIDGWTRKDGQLWMPNLLVTIDASKYAIKTTELLVSKVTLILNDQDGLKTRVSLAPREGFLVPVESDRKNRKGGDSNGGIDALVEDYYRRHPEKTPPWKE
notes: baseplate hub protein gp44 of myophage Mu, as it stands in the virion; Trimer; Model deposited here; source: phage Mu virions grown on E. coli (ATCC 23724), purified (PEG 8000/NaCl precipitation, CsCl gradient)
B5: portal protein gp29 (natural protein, phage Mu, UniProt Q9T1W5 1-512, looked up)
chain: MGRILDISGQPFDFDDEMQSRSDELAMVMKRTQEHPSSGVTPNRAAQMLRDAERGDLTAQADLAFDMEEKDTHLFSELSKRRLAIQALEWRIAPARDASAQEKKDADMLNEYLHDAAWFEDALFDAGDAILKGYSMQEIEWGWLGKMRVPVALHHRDPALFCANPDNLNELRLRDASYHGLELQPFGWFMHRAKSRTGYVGTNGLVRTLIWPFIFKNYSVRDFAEFLEIYGLPMRVGKYPTGSTNREKATLMQAVMDIGRRAGGIIPMGMTLDFQSAADGQSDPFMAMIGWAEKAISKAILGGTLTTEAGDKGARSLGEVHDEVRREIRNADVGQLARSINRDLIYPLLALNSDSTIDINRLPGIVFDTSEAGDITALSDAIPKLAAG
notes: portal protein gp29 of myophage Mu, as it stands in the virion; Dodecamer; Model deposited here; source: phage Mu virions grown on E. coli (ATCC 23724), purified (PEG 8000/NaCl precipitation, CsCl gradient); copies: 12
B6: baseplate wedge protein 2 (BW2) gp47 (natural protein, phage Mu, UniProt Q9T1V2 1-360, looked up)
chain: MAYSPPTLSSLIARTEQNIEQRLPGSWPQAREKTLSAIAYAQAGLAAGCHEHISWVGRQIIPSTADEDELLEHCRFWGVRRKQATAASGPLTVTTSAATTIPAGTRWQRADGVVYSLADTIVIDRAGTTEITVTALAAGEAGNTGENTLLTLITPVACVVSDAITVKGFSGGADIESAAELLSRLEYRVQYPPFGGNQFDYVRWAREVSGVTRAWCFPTWKGGGTVGVTFVMDNRSNIFPQPADVERVADYIAGHTDPITGLIVGQPDGVNVTVFAPKAKPVNPRIYISPKTAELKQAITNAINTMFFNEVMPGGALAPSRIIRAVAGVTGLDDFEVRFPTEIQRSENTELLTAGTIEWL
notes: baseplate wedge protein 2 gp47 of myophage Mu, as it stands in the virion; Two conformers (BW2-i, BW2-o) in each of the six wedges; Model deposited here; also called BW2-i; BW2-o; source: phage Mu virions grown on E. coli (ATCC 23724), purified (PEG 8000/NaCl precipitation, CsCl gradient)
B7: tube initiator protein gp43 (natural protein, phage Mu, UniProt P08557 1-495, looked up)
chain: MFEDALNAVNAVRDKTGGGRKTTGKGTFRNVPFLVIEEQKQAGGRRLVKREYPLRDTGGVNDLGKKLRSRTFSACILNSNAETARDEAGALMDALDAPGSGELVHPDFGTVDVMVDSWECRTKADELNYYAFTVTVYPSLQDTAPDAETDTSAAVPAQAVAVTGSLGDTLSSVWQTVKDGTAAATAVMEAVTGVIDDISDAVDNLGVTQTVSGLMGSLSAMKGSVTSLINQPAMLASSLMGALSGVSSLCDTRTAFSTWNRLAQRFERRHAATAGRQGTITTSYNSPVAEKNIATLNYVMLAAAQTYRAEAASQALTAALDFSRRMDNAARAPVLDAPSTTTGTASGASSTSATVTQGQLQLTAITPDGGFSQVSFSDSGTATPPVFESVSDIEKTTAMLGAALDSVILTASEQGFSTDSVQLTQLRLLVVADLEKRGLQLAGSESHHLPETLPAMVALYRFTGNSRNWQRLARRNGISNPLFVPGGVSIEVINE
notes: tube initiator protein gp43 (N protein, DNA circularization protein) of myophage Mu, as it stands in the virion; Hexamer; Model deposited here; also called N protein; DNA circularization protein; source: phage Mu virions grown on E. coli (ATCC 23724), purified (PEG 8000/NaCl precipitation, CsCl gradient)

Experiment in all cases: cryo-EM structure; purified phage Mu virions in the extended state (native phage) in phage buffer (10 mM MgCl2, 5 mM NaCl, 10 mM Tris-HCl, pH 7.4); icosahedral, symmetry-mismatch and local reconstruction; 3.2 Å (3-fold capsid), 3.4 Å (portal-adaptor), 3.5 Å (terminator-tail), 3.3 Å (baseplate)
The target in data set [1] is major capsid protein (MCP) gp34 (phage Mu).
The target of data set [2] is tape measure protein (TMP) gp42 (phage Mu).
Data set [3] concerns the target tail terminator protein gp37 (phage Mu).
The target in data set [4] is adaptor protein gp36 (phage Mu).
Data set [5] concerns the molecule itself.
The target of the data set “tail sheath protein gp39” is B1. The conditions noted are these: both partners purified.
Data set [6] has as its target B7. The conditions noted are these: both partners purified.

From article PMC11915804, “In situ structures of the contractile nanomachine myophage Mu in both its extended and contracted states” (Journal of Virology, 2025) come the findings set out here.

Usually stoichiometry N stands for the number of molecules, sites or subunits per partner or assembly. “major capsid protein (MCP) gp34 (natural protein)” showed a stoichiometry N in data set [1] of 415.
As to “tape measure protein (TMP) gp42 (natural protein)”, the stoichiometry N in data set [2] came out at 3.
For the molecule “tail terminator protein gp37 (natural protein)”, the stoichiometry N in data set [3] turned out to be 6.
adaptor protein gp36 (natural protein): the stoichiometry N in data set [4] came to 12.
B1: the “stoichiometry N” value in data set [5] is 6.
With B2, the binding result in the data set with tail sheath protein gp39 is given as “binds”. Further, the “stoichiometry N” value in data set [5] was 6.
With B3, the “stoichiometry N” value in data set [5] turned out to be 3.
Same read-out and setting: for B4 the value was 3; for B5, 12.
Consider B6, for which the binding result in data set [6] and in data set [5] was “binds” throughout.
For B7, in data set [5], the “stoichiometry N” value came to 6.
